# B1: anti-CD4 Fab fragment m13B8.2 with Twin Strep-Tag (Fab, V domains shown)
# VH: QVQLKQSGPGLVQPSQSLSITCTVSGFSLTTFGVHWVRQSPGKGLEWLGVIWASGITDYNVPFMSRLSITKDNSKSQVFFKLNSLQPDDTAIYYCAKNDPGTGFAYWGQGTLVTVSA
# VL: DIQMTQSPASLSASVGETVTFTCRASEMIYSYLAWYQQKQGKSPQLLVHDAKTLAEGVPSRFSGGGSGTQFSLKINTLQPEDFGTYYCQAHYGNPPTFGGGTKLEIKR
# Assays:
# [1] = target: T1, Strep-Tactin M2 streptavidin mutein covalently immobilised on chromatography resin (Streptomyces avidinii, UniProt P22629 38-163, covalently coupled to the resin (CNBr-activated Sephadex G-50, agarose, or epoxy-activated polystyrene)); experiment: loading of Fab on Strep-Tactin Sephadex G50 resin, 20 min at 4 °C
# T1 construct: also called immobilized Strep-Tactin; STREP-TACTIN M2 multimer reagent
# Protocol: A 50% suspension of Sephadex G50 contained approximately 70 μg of covalently coupled 7 Strep-Tactin®/mL of the bead suspension. Following immobilization of STREP-TACTIN® onto the stationary phase, two mL of the suspension of Sephadex G50 with Strep-Tactin® was incubated with 10 μg of a selection agent specific to a T cell surface selection marker for 20 min at 4° C. in order to allow binding of the Fab fragment to the immobilized Strep-Tactin® reagent. The suspension was then filled in a plastic minicolumn with a 90 micrometer frit at the bottom. The column was equilibrated with PBS (phosphate buffered saline) containing 0.5% bovine serum albumin (PBSA buffer) to give a bed volume of 1 mL.
# [2] = target: T2, CD4 on the surface of human T cells (human, UniProt P01730 26-458); experiment: affinity column cell selection from apheresis, surface marker MFI of the collected cells by flow cytometry, 24 h with or without anti-CD3/anti-CD28 oligomeric reagent
# T2 construct: whole, on cells; also called selection marker CD4
# Protocol: Following immobilization of STREP-TACTIN® onto the stationary phase, two mL of the suspension of Sephadex G50 with Strep-Tactin® was incubated with 10 μg of a selection agent specific to a T cell surface selection marker for 20 min at 4° C. in order to allow binding of the Fab fragment to the immobilized Strep-Tactin® reagent. The suspension was then filled in a plastic minicolumn with a 90 micrometer frit at the bottom. The column was equilibrated with PBS (phosphate buffered saline) containing 0.5% bovine serum albumin (PBSA buffer) to give a bed volume of 1 mL.
# As a control, an apheresis sample was loaded onto the anti-CD3 affinity column but without incubation in the presence of the anti-CD3/anti-CD28 oligomeric stimulatory reagent.
binder,measurement,setting,value
B1,binding result,[1],binds
same,binding result,[2],binds
